For the assay, the target named is T1, FcγRIa (human, UniProt P12314 16-292).
T1 construct: extracellular domain; Soluble extracellular domain expressed in FreeStyle293 cells, used as analyte in Biacore; also called FcgRI; 1a; not shown: His tag attached to the C terminus
Put plainly: SPR (Biacore); He Ab vs HeCon Ab GpH7-A5/GpH7-B3/GpL16-k0. The procedure: Analysis of interaction between objective antibody and the FcγR was carried out using Biacore T100 (GE Healthcare). HBS-EP+ (GE Healthcare) was used as the running buffer, and the measurement temperature was set to 25° C. Chips produced by immobilizing the antigen peptide by the amine coupling method to a Series S Sencor Chip CM5 (GE Healthcare), or alternatively, chips produced by allowing preliminarily biotinylated antigen peptides to interact with and immobilize onto a Series S Sensor Chip SA (certified) (GE Healthcare) were used. Antibodies of interest were captured onto an antigen peptide-immobilized chip, and allowed to interact to each FcγR diluted with running buffer. To regenerate and repeatedly use the chip, the antibodies captured on the chip were washed off by reacting 10 mM glycine-HCl, pH 1.5.

T1 sequence (P12314 16-292): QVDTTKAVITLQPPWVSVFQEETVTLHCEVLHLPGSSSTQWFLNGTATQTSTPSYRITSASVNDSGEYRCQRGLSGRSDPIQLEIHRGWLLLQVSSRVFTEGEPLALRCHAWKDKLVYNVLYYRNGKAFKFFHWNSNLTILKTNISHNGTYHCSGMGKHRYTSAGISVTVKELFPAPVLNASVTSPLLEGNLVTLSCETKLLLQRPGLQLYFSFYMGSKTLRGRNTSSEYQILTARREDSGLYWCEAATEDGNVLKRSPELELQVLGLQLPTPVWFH

B1: GpH7-A5/GpH7-B3 variant S298_04F/GpL16-k0 (antibody, human IgG1, kappa)
heavy 1: not shown
heavy 2: not shown
light: DIVMTQSPLSLPVTPGEPASISCQASESLVHSNRNTYLHWYLQKPGQSPQLLIYKVSNRFSGVPDRFSGSGSGTDFTLKISRVEAEDVGVYYCSQNTHVPPTFGQGTKVEIERTVAAPSVFIFPPSDEQLKSGTASVVCLLNNFYPREAKVQWKVDNALQSGNSQESVTEQDSKDSTYSLSSTLTLSKADYEKHKVYACEVTHQGLSSPVTKSFNRGEC
notes: also called He Ab S298_04F
Regarding B1, the He/Con_1a is 109 relative binding, control = 100.

B2: GpH7-A5/GpH7-B3 variant S298_12R/GpL16-k0 (antibody, human IgG1, kappa)
heavy 1: not shown
heavy 2: not shown
light: DIVMTQSPLSLPVTPGEPASISCQASESLVHSNRNTYLHWYLQKPGQSPQLLIYKVSNRFSGVPDRFSGSGSGTDFTLKISRVEAEDVGVYYCSQNTHVPPTFGQGTKVEIERTVAAPSVFIFPPSDEQLKSGTASVVCLLNNFYPREAKVQWKVDNALQSGNSQESVTEQDSKDSTYSLSSTLTLSKADYEKHKVYACEVTHQGLSSPVTKSFNRGEC
notes: also called He Ab S298_12R
Take B2: the He/Con_1a was 109 relative binding, control = 100.

B3: GpH7-A5/GpH7-B3 variant S298_14T/GpL16-k0 (antibody, human IgG1, kappa)
heavy 1: not shown
heavy 2: not shown
light: DIVMTQSPLSLPVTPGEPASISCQASESLVHSNRNTYLHWYLQKPGQSPQLLIYKVSNRFSGVPDRFSGSGSGTDFTLKISRVEAEDVGVYYCSQNTHVPPTFGQGTKVEIERTVAAPSVFIFPPSDEQLKSGTASVVCLLNNFYPREAKVQWKVDNALQSGNSQESVTEQDSKDSTYSLSSTLTLSKADYEKHKVYACEVTHQGLSSPVTKSFNRGEC
notes: also called He Ab S298_14T
In the case of B3, the He/Con_1a is 107 relative binding, control = 100.

B4: GpH7-A5/GpH7-B3 variant S298_07I/GpL16-k0 (antibody, human IgG1, kappa)
heavy 1: not shown
heavy 2: not shown
light: DIVMTQSPLSLPVTPGEPASISCQASESLVHSNRNTYLHWYLQKPGQSPQLLIYKVSNRFSGVPDRFSGSGSGTDFTLKISRVEAEDVGVYYCSQNTHVPPTFGQGTKVEIERTVAAPSVFIFPPSDEQLKSGTASVVCLLNNFYPREAKVQWKVDNALQSGNSQESVTEQDSKDSTYSLSSTLTLSKADYEKHKVYACEVTHQGLSSPVTKSFNRGEC
notes: also called He Ab S298_07I
For the molecule B4, the He/Con_1a was 107 relative binding, control = 100.

B5: GpH7-A5/GpH7-B3 variant S298_15Y/GpL16-k0 (antibody, human IgG1, kappa)
heavy 1: not shown
heavy 2: not shown
light: DIVMTQSPLSLPVTPGEPASISCQASESLVHSNRNTYLHWYLQKPGQSPQLLIYKVSNRFSGVPDRFSGSGSGTDFTLKISRVEAEDVGVYYCSQNTHVPPTFGQGTKVEIERTVAAPSVFIFPPSDEQLKSGTASVVCLLNNFYPREAKVQWKVDNALQSGNSQESVTEQDSKDSTYSLSSTLTLSKADYEKHKVYACEVTHQGLSSPVTKSFNRGEC
notes: also called He Ab S298_15Y
For B5, the He/Con_1a was 107 relative binding, control = 100.

B6: GpH7-A5/GpH7-B3 variant S298_06M/GpL16-k0 (antibody, human IgG1, kappa)
heavy 1: not shown
heavy 2: not shown
light: DIVMTQSPLSLPVTPGEPASISCQASESLVHSNRNTYLHWYLQKPGQSPQLLIYKVSNRFSGVPDRFSGSGSGTDFTLKISRVEAEDVGVYYCSQNTHVPPTFGQGTKVEIERTVAAPSVFIFPPSDEQLKSGTASVVCLLNNFYPREAKVQWKVDNALQSGNSQESVTEQDSKDSTYSLSSTLTLSKADYEKHKVYACEVTHQGLSSPVTKSFNRGEC
notes: also called He Ab S298_06M
B6: the He/Con_1a is 114 relative binding, control = 100.

B7: GpH7-A5/GpH7-B3 variant S298_10E/GpL16-k0 (antibody, human IgG1, kappa)
heavy 1: not shown
heavy 2: not shown
light: DIVMTQSPLSLPVTPGEPASISCQASESLVHSNRNTYLHWYLQKPGQSPQLLIYKVSNRFSGVPDRFSGSGSGTDFTLKISRVEAEDVGVYYCSQNTHVPPTFGQGTKVEIERTVAAPSVFIFPPSDEQLKSGTASVVCLLNNFYPREAKVQWKVDNALQSGNSQESVTEQDSKDSTYSLSSTLTLSKADYEKHKVYACEVTHQGLSSPVTKSFNRGEC
notes: also called He Ab S298_10E
For B7, the He/Con_1a is 108 relative binding, control = 100.

B8: GpH7-A5/GpH7-B3 variant S298_08L/GpL16-k0 (antibody, human IgG1, kappa)
heavy 1: not shown
heavy 2: not shown
light: DIVMTQSPLSLPVTPGEPASISCQASESLVHSNRNTYLHWYLQKPGQSPQLLIYKVSNRFSGVPDRFSGSGSGTDFTLKISRVEAEDVGVYYCSQNTHVPPTFGQGTKVEIERTVAAPSVFIFPPSDEQLKSGTASVVCLLNNFYPREAKVQWKVDNALQSGNSQESVTEQDSKDSTYSLSSTLTLSKADYEKHKVYACEVTHQGLSSPVTKSFNRGEC
notes: also called He Ab S298_08L
On to B8, for which the He/Con_1a was 107 relative binding, control = 100.

For the origin of these results see patent publication US20150344570A1 (published 2015).
